Sequences and labels used below:
B1: TPR t1 (parent)
chain: GACCAAUCUGCCCUCAGAGCUCGAGAACAUCUUCGGAUGCAGAGGAGGCAGGCUUCGGUGGCGCGAUAGCGCCAACGUCCUCAACCUCCAAUGCAUCCCACCACAUGAUGAUGCCUGAAGAGCCUUGGUUUUUUG

Variants of B1 are the subject of the data set. Description: polymerase ribozyme fitness, log enrichment relative to wild type (log ratio); higher = more active; in vitro selection for triplet polymerase activity. The gist of the method:
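Each subunit of a heterodimeric triplet polymerase ribozyme was represented by a PCR-built, transcribed mutant library that underwent triplicate single-round in vitro selection with frozen incubation at −7 °C. Extended constructs were recovered by gel excision, streptavidin-bead capture and RT-PCR, and Illumina sequencing of input and output libraries kept genotypes with ≥10 input reads and ≥1 read per output. Fitness is the logarithm of genotype enrichment relative to wild-type enrichment, from inverse-variance-weighted replicate averages, with a logarithm base of 2.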
Regarding U32C G60A C97A C124U U131A, the “polymerase ribozyme fitness (log ratio)” value is -4.71.
Regarding U33C C124A, the “polymerase ribozyme fitness (log ratio)” value was -2.98.
With C31U C73A A95C, the “polymerase ribozyme fitness (log ratio)” value is -5.67.
In the case of U30G C49G C80G G117C, the “polymerase ribozyme fitness (log ratio)” value is -7.34.
With C31G A37U C97A U116G, the “polymerase ribozyme fitness (log ratio)” value was -7.62.
Next, U32C A100C: -1.02; U32G C115A: -5.41.
U32C G71A C73U: the “polymerase ribozyme fitness (log ratio)” value is -1.78.
For U32G C70G C98G, the “polymerase ribozyme fitness (log ratio)” value is -6.14.
The value for C31A C72G was -5.43.
As for U33G G61A C80G A91C U92A C101U C115G, the “polymerase ribozyme fitness (log ratio)” value is -8.32.
Consider U32A A121U U133A, for which the “polymerase ribozyme fitness (log ratio)” value is -1.22.
As for C31U C72G, the “polymerase ribozyme fitness (log ratio)” value was -4.16.
With C31A U54C U96A A111G, the “polymerase ribozyme fitness (log ratio)” value was -5.95.
Take U33G U54G G58C A74G G120C: the “polymerase ribozyme fitness (log ratio)” value is -5.75.
Take U32G C97G A119G: the “polymerase ribozyme fitness (log ratio)” value was -6.08.
Turning to U32C A46U G63C C104A G117C, the “polymerase ribozyme fitness (log ratio)” value is -6.2.
Turning to C31A U32C C123G, the “polymerase ribozyme fitness (log ratio)” value is -3.17.
Take C31U U81C G120U: the “polymerase ribozyme fitness (log ratio)” value was -6.22.
Turning to U32C C97A C124U U131A, the “polymerase ribozyme fitness (log ratio)” value is -4.33.
Take C31U U112G: the “polymerase ribozyme fitness (log ratio)” value was -4.94.
Regarding C31A C73U, the “polymerase ribozyme fitness (log ratio)” value is -5.76.
Next, U32C G48A G52U A66U C114A: -5.75.
Regarding C31G G42U C72G C98U G107C C115U, the “polymerase ribozyme fitness (log ratio)” value is -6.04.
C31A U81C C124A: the “polymerase ribozyme fitness (log ratio)” value is -5.14.
For U33A C72U, the “polymerase ribozyme fitness (log ratio)” value is -4.34.
Consider C31U A46U C85U, for which the “polymerase ribozyme fitness (log ratio)” value is -7.42.
C31G C34G C97A C102A G113A: the “polymerase ribozyme fitness (log ratio)” value is -6.66.
As for U30C U87G, the “polymerase ribozyme fitness (log ratio)” value is -2.72.
Turning to U33C C79G A111U, the “polymerase ribozyme fitness (log ratio)” value is -7.17.
As for U33G G39C G110U, the “polymerase ribozyme fitness (log ratio)” value is -6.35.
Take U32C C72A C82A A83U: the “polymerase ribozyme fitness (log ratio)” value was -0.635.
In the case of U32G G39A U106C, the “polymerase ribozyme fitness (log ratio)” value was -4.98.
As to C31G A50C U109G U131A, the “polymerase ribozyme fitness (log ratio)” value is -4.54.
Regarding U32C U112A, the “polymerase ribozyme fitness (log ratio)” value was found to be 1.49.
The value for U33C G39U was -5.33.
Take U33C G69U: the “polymerase ribozyme fitness (log ratio)” value is -1.74.
On to C31G C62U A84G U87A G93U G120U, for which the “polymerase ribozyme fitness (log ratio)” value was -6.9.
C34A A37U G69C G120A: the “polymerase ribozyme fitness (log ratio)” value was -5.05.
The value for U30C G71U was -3.2; that for C31A C88G was -4.98.
Regarding U33G C72A C85G A90G G120C U129G, the “polymerase ribozyme fitness (log ratio)” value was -7.02.
As to U30C G39A G57U G69U U130G, the “polymerase ribozyme fitness (log ratio)” value was -5.29.
As for C31U G47U, the “polymerase ribozyme fitness (log ratio)” value is -6.27.
For U32A G44A C94A C99G G120U, the “polymerase ribozyme fitness (log ratio)” value was -7.6.
Consider C31A A111C, for which the “polymerase ribozyme fitness (log ratio)” value is -3.67.
Turning to U32C G52U G77U C79A A90G C115U U126A, the “polymerase ribozyme fitness (log ratio)” value is -5.37.
In the case of U32C G69C C80U C101U C102U, the “polymerase ribozyme fitness (log ratio)” value was -5.78.
Take C31A G107C: the “polymerase ribozyme fitness (log ratio)” value is -4.91.
As for U33G U59G G110A, the “polymerase ribozyme fitness (log ratio)” value was -5.54.
On to C34A A43U, for which the “polymerase ribozyme fitness (log ratio)” value is -5.98.
The value for U32C C99U was -2.13; that for U32G A68U C80A C101U A111U U126G was -6.67.
With U33G G35U G69U U78G A91C C114G G128C U132A G135A, the “polymerase ribozyme fitness (log ratio)” value was -5.79.
The value for U30C C49A C62A C115A was -4.4; that for U32G A119G was -5.95.
Regarding U32C A41C, the “polymerase ribozyme fitness (log ratio)” value was -1.24.
In the case of U32A C72U, the “polymerase ribozyme fitness (log ratio)” value was -5.
The value for U32A C72G was -3.95.
C31G G47A C80G C115U U126A: the “polymerase ribozyme fitness (log ratio)” value is -8.
As to U30C G71U U87C, the “polymerase ribozyme fitness (log ratio)” value was -4.19.
In the case of U30G A43U G45U G47A C49A C73A U106A A119G, the “polymerase ribozyme fitness (log ratio)” value is -3.78.
As for C31U G69U C73U A100U, the “polymerase ribozyme fitness (log ratio)” value was -3.8.
Consider C31G C99G, for which the “polymerase ribozyme fitness (log ratio)” value was -6.63.
For the variant U32C C49U C53U A75G A83C C99U, the “polymerase ribozyme fitness (log ratio)” value is -5.45.
Regarding U33G G52C U78A C98A U112G U116G, the “polymerase ribozyme fitness (log ratio)” value is -7.02.
Consider U32C C40G G57U G117C G120A, for which the “polymerase ribozyme fitness (log ratio)” value was -6.56.
In the case of U32A A43C G63C, the “polymerase ribozyme fitness (log ratio)” value is -6.22.
Regarding C31G C124G, the “polymerase ribozyme fitness (log ratio)” value was -6.98.
Next, C31G C88A G110U C115A: -7.42.
The value for C31U A50U C53U C72U G93A C124U was -7.15; that for C31G G57A G58C G63A U112C was -7.16.
For the variant U32A C40U C101A, the “polymerase ribozyme fitness (log ratio)” value is -4.24.
The value for U33G G61A A121U G127U U133A was -3.67; that for U32C G63A A74U was -3.86.
On to U30C A46G A74G G113A, for which the “polymerase ribozyme fitness (log ratio)” value is -2.75.
Consider U33C C64U, for which the “polymerase ribozyme fitness (log ratio)” value was -3.44.
U33A G45A G63C: the “polymerase ribozyme fitness (log ratio)” value is -5.54.
The value for U30G C64U A121G was -4.
As to C31U A46C G113U A119G, the “polymerase ribozyme fitness (log ratio)” value is -5.51.
Take U33G G52C C56A G61A C79U A91G C123G U131G: the “polymerase ribozyme fitness (log ratio)” value was -7.1.
In the case of U30G A43C C104A A111U, the “polymerase ribozyme fitness (log ratio)” value is -6.22.
As to U32C C53U A103C, the “polymerase ribozyme fitness (log ratio)” value is -4.2.
Consider U32C G42C C123G, for which the “polymerase ribozyme fitness (log ratio)” value was 1.74.

These data come from the RNAGym collection of RNA variant scans (doi:10.1073/pnas.2313332121).
